# Data: the supplement of paper PMC10567573
# B1: ZBTB22 (parent)
# chain: FSSSSQEAFAASAVGSGERRGGGP
# Variants of: B1
# Test: protein stability index of a GFP-peptide fusion (GPS, HEK-293T) (PSI 1-6); higher = more stable
# Conditions: c terminus: a fixed tail appended
# 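Also: lentivirally expressed fusions sorted by FACS into six bins by GFP to DsRed ratio, PSI derived from sequencing read proportions per bin multiplied by bin number.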
row,Variant,protein stability index
1,FSSSEQEAFAASAVGSGERRGGGP,4.15
2,FSSSYQEAFAASAVGSGERRGGGP,1.95
3,FSSSLQEAFAASAVGSGERRGGGP,3.66
4,FSSSIQEAFAASAVGSGERRGGGP,3.62
5,FSSSWQEAFAASAVGSGERRGGGP,2.87
6,FSSSMQEAFAASAVGSGERRGGGP,2.4
7,FSSSCQEAFAASAVGSGERRGGGP,2.79
8,FSSSPQEAFAASAVGSGERRGGGP,4.56
9,FSSSAQEAFAASAVGSGERRGGGP,2.71
10,FSSSQQEAFAASAVGSGERRGGGP,4.35
11,FSSSKQEAFAASAVGSGERRGGGP,3.91
12,FSSSVQEAFAASAVGSGERRGGGP,4.15
13,FSSSNQEAFAASAVGSGERRGGGP,3.61
14,FSSSRQEAFAASAVGSGERRGGGP,3.7
15,FSSSTQEAFAASAVGSGERRGGGP,4.41
16,FSSSHQEAFAASAVGSGERRGGGP,2.86
17,FSSSFQEAFAASAVGSGERRGGGP,2.45
18,FSSSDQEAFAASAVGSGERRGGGP,4.27
19,FSSSSQEAFAALAVGSGERRGGGP,2.36
20,FSSSSQEAFAAHAVGSGERRGGGP,2.94
21,FSSSSQEAFAAIAVGSGERRGGGP,2.26
22,FSSSSQEAFAAAAVGSGERRGGGP,3.56
23,FSSSSQEAFAAKAVGSGERRGGGP,3.68
24,FSSSSQEAFAAGAVGSGERRGGGP,3.61

row,Variant,protein stability index
1,FSSSSQEAFAAEAVGSGERRGGGP,3.58
2,FSSSSQEAFAAFAVGSGERRGGGP,1.47
3,FSSSSQEAFAACAVGSGERRGGGP,2.54
4,FSSSSQEAFAADAVGSGERRGGGP,3.48
5,FSSSSQEMFAASAVGSGERRGGGP,2.17
6,FSSSSQERFAASAVGSGERRGGGP,3.96
7,FSSSSQEKFAASAVGSGERRGGGP,3.79
8,FSSSSQEDFAASAVGSGERRGGGP,5.19
9,FSSSSQEHFAASAVGSGERRGGGP,3.86
10,FSSSSQEPFAASAVGSGERRGGGP,3.94
11,FSSSSQEEFAASAVGSGERRGGGP,4.74
12,FSSSSQETFAASAVGSGERRGGGP,3.46
13,FSSSSQEGFAASAVGSGERRGGGP,4.44
14,FSSSSQEQFAASAVGSGERRGGGP,4.09
15,FSSSSQENFAASAVGSGERRGGGP,4.21
16,FSSSSQELFAASAVGSGERRGGGP,2.25
17,FSSSSQECFAASAVGSGERRGGGP,2.47
18,FSSSSQESFAASAVGSGERRGGGP,4.18
19,FSSSSQEFFAASAVGSGERRGGGP,2.55
20,FSSSSQEYFAASAVGSGERRGGGP,1.88
21,FSSSSQEVFAASAVGSGERRGGGP,2.11
22,FSSSSQEIFAASAVGSGERRGGGP,2.75
23,FSSSSREAFAASAVGSGERRGGGP,3
24,FSSSSYEAFAASAVGSGERRGGGP,2.13

row,Variant,protein stability index
1,FSSSSDEAFAASAVGSGERRGGGP,4.44
2,FSSSSKEAFAASAVGSGERRGGGP,1.31
3,FSSSSNEAFAASAVGSGERRGGGP,3.32
4,FSSSSTEAFAASAVGSGERRGGGP,2.77
5,FSSSSCEAFAASAVGSGERRGGGP,3.77
6,FSSSSLEAFAASAVGSGERRGGGP,2.85
7,FSSSSMEAFAASAVGSGERRGGGP,2.85
8,FSSSSAEAFAASAVGSGERRGGGP,2.74
9,FSSSSHEAFAASAVGSGERRGGGP,2.81
10,FSSSSEEAFAASAVGSGERRGGGP,4.4
11,FSSSSVEAFAASAVGSGERRGGGP,2.6
12,FSSSSSEAFAASAVGSGERRGGGP,2.49
13,FSSSSFEAFAASAVGSGERRGGGP,2.18
14,FSSSSGEAFAASAVGSGERRGGGP,4.22
15,FSSSSIEAFAASAVGSGERRGGGP,2.5
16,FSSSSPEAFAASAVGSGERRGGGP,3.03
17,FSSSSQEAFAISAVGSGERRGGGP,2.32
18,FSSSSQEAFADSAVGSGERRGGGP,4.39
19,FSSSSQEAFAVSAVGSGERRGGGP,2.13
20,FSSSSQEAFATSAVGSGERRGGGP,3.32
21,FSSSSQEAFARSAVGSGERRGGGP,3.74
22,FSSSSQEAFASSAVGSGERRGGGP,3.88
23,FSSSSQEAFALSAVGSGERRGGGP,3.04
24,FSSSSQEAFAESAVGSGERRGGGP,3.85

row,Variant,protein stability index
1,FSSSSQEAFACSAVGSGERRGGGP,1.95
2,FSSSSQEAFAQSAVGSGERRGGGP,3.44
3,FSSSSQEAFAFSAVGSGERRGGGP,2.19
4,FSSSSQEAFAKSAVGSGERRGGGP,4.5
5,FSSSSQEAFAGSAVGSGERRGGGP,2.86
6,FSSSSQEAFAHSAVGSGERRGGGP,3.02
7,FSSSSQEAFAYSAVGSGERRGGGP,3.13
8,FSSSSQEAFAMSAVGSGERRGGGP,3.4
9,FSSSSQEAFANSAVGSGERRGGGP,3.88
10,FSSSSQEAFAWSAVGSGERRGGGP,1.86
11,FSSSSQEAFRASAVGSGERRGGGP,3.33
12,FSSSSQEAFDASAVGSGERRGGGP,5.25
13,FSSSSQEAFLASAVGSGERRGGGP,3.26
14,FSSSSQEAFMASAVGSGERRGGGP,3.16
15,FSSSSQEAFCASAVGSGERRGGGP,2.44
16,FSSSSQEAFGASAVGSGERRGGGP,3.75
17,FSSSSQEAFYASAVGSGERRGGGP,2.27
18,FSSSSQEAFEASAVGSGERRGGGP,4.74
19,FSSSSQEAFIASAVGSGERRGGGP,2.44
20,FSSSSQEAFQASAVGSGERRGGGP,4.09
21,FSSSSQEAFFASAVGSGERRGGGP,2.41
22,FSSSSQEAFVASAVGSGERRGGGP,2.58
23,FSSSSQEAFPASAVGSGERRGGGP,3.89
24,FSSSSQEAFHASAVGSGERRGGGP,3.65

row,Variant,protein stability index
1,FSSSSQEAFSASAVGSGERRGGGP,3.22
2,FSSSSQEAFKASAVGSGERRGGGP,3.2
3,FSSSSQEAFNASAVGSGERRGGGP,3.97
4,FSSSSQEAFTASAVGSGERRGGGP,3.26
5,FSSSSQEAFWASAVGSGERRGGGP,2.88
6,FSISSQEAFAASAVGSGERRGGGP,4.37
7,FSKSSQEAFAASAVGSGERRGGGP,4.3
8,FSMSSQEAFAASAVGSGERRGGGP,4.2
9,FSPSSQEAFAASAVGSGERRGGGP,2.99
10,FSWSSQEAFAASAVGSGERRGGGP,2.86
11,FSESSQEAFAASAVGSGERRGGGP,4.38
12,FSDSSQEAFAASAVGSGERRGGGP,4.36
13,FSNSSQEAFAASAVGSGERRGGGP,3.76
14,FSQSSQEAFAASAVGSGERRGGGP,4.07
15,FSASSQEAFAASAVGSGERRGGGP,3.41
16,FSVSSQEAFAASAVGSGERRGGGP,4.41
17,FSYSSQEAFAASAVGSGERRGGGP,3.71
18,FSCSSQEAFAASAVGSGERRGGGP,2.97
19,FSHSSQEAFAASAVGSGERRGGGP,4.13
20,FSTSSQEAFAASAVGSGERRGGGP,4.04
21,FSLSSQEAFAASAVGSGERRGGGP,4.05
22,FSFSSQEAFAASAVGSGERRGGGP,3.37
23,FSGSSQEAFAASAVGSGERRGGGP,2.35
24,FSRSSQEAFAASAVGSGERRGGGP,3.54

row,Variant,protein stability index
1,FSSSSQEAHAASAVGSGERRGGGP,4.66
2,FSSSSQEATAASAVGSGERRGGGP,5.26
3,FSSSSQEAVAASAVGSGERRGGGP,5.24
4,FSSSSQEANAASAVGSGERRGGGP,4.71
5,FSSSSQEAYAASAVGSGERRGGGP,3.56
6,FSSSSQEAIAASAVGSGERRGGGP,4.83
7,FSSSSQEAWAASAVGSGERRGGGP,1.67
8,FSSSSQEALAASAVGSGERRGGGP,4.92
9,FSSSSQEAMAASAVGSGERRGGGP,4.96
10,FSSSSQEAKAASAVGSGERRGGGP,5.2
11,FSSSSQEAQAASAVGSGERRGGGP,5.09
12,FSSSSQEARAASAVGSGERRGGGP,4.35
13,FSSSSQEACAASAVGSGERRGGGP,4.57
14,FSSSSQEAGAASAVGSGERRGGGP,4.56
15,FSSSSQEASAASAVGSGERRGGGP,5.01
16,FSSSSQEAEAASAVGSGERRGGGP,5.92
17,FSSSSQEAPAASAVGSGERRGGGP,4.98
18,FSSSSQEADAASAVGSGERRGGGP,5.44
19,FSSSSQEAAAASAVGSGERRGGGP,5.51
20,FSSSSQIAFAASAVGSGERRGGGP,2.24
21,FSSSSQCAFAASAVGSGERRGGGP,1.64
22,FSSSSQVAFAASAVGSGERRGGGP,1.96
23,FSSSSQNAFAASAVGSGERRGGGP,2.84
24,FSSSSQDAFAASAVGSGERRGGGP,3.99

row,Variant,protein stability index
1,FSSSSQTAFAASAVGSGERRGGGP,2.78
2,FSSSSQQAFAASAVGSGERRGGGP,3.67
3,FSSSSQGAFAASAVGSGERRGGGP,3.12
4,FSSSSQYAFAASAVGSGERRGGGP,1.54
5,FSSSSQPAFAASAVGSGERRGGGP,3.25
6,FSSSSQAAFAASAVGSGERRGGGP,2.09
7,FSSSSQRAFAASAVGSGERRGGGP,2.36
8,FSSSSQSAFAASAVGSGERRGGGP,2.57
9,FSSSSQKAFAASAVGSGERRGGGP,2.82
10,FSSSSQMAFAASAVGSGERRGGGP,2.37
11,FSSSSQLAFAASAVGSGERRGGGP,1.55
12,FSSSSQHAFAASAVGSGERRGGGP,2.31
13,FRSSSQEAFAASAVGSGERRGGGP,4.52
14,FFSSSQEAFAASAVGSGERRGGGP,4.08
15,FLSSSQEAFAASAVGSGERRGGGP,3.13
16,FVSSSQEAFAASAVGSGERRGGGP,2.29
17,FKSSSQEAFAASAVGSGERRGGGP,4.86
18,FTSSSQEAFAASAVGSGERRGGGP,2.53
19,FNSSSQEAFAASAVGSGERRGGGP,4.13
20,FISSSQEAFAASAVGSGERRGGGP,2.26
21,FGSSSQEAFAASAVGSGERRGGGP,2.2
22,FWSSSQEAFAASAVGSGERRGGGP,3.16
23,FYSSSQEAFAASAVGSGERRGGGP,4.54
24,FMSSSQEAFAASAVGSGERRGGGP,4.01

row,Variant,protein stability index
1,FQSSSQEAFAASAVGSGERRGGGP,2.55
2,FHSSSQEAFAASAVGSGERRGGGP,1.77
3,FSSGSQEAFAASAVGSGERRGGGP,1.93
4,FSSDSQEAFAASAVGSGERRGGGP,3.98
5,FSSHSQEAFAASAVGSGERRGGGP,3.21
6,FSSVSQEAFAASAVGSGERRGGGP,3.87
7,FSSPSQEAFAASAVGSGERRGGGP,4.25
8,FSSFSQEAFAASAVGSGERRGGGP,2.88
9,FSSWSQEAFAASAVGSGERRGGGP,1.68
10,FSSNSQEAFAASAVGSGERRGGGP,3.52
11,FSSKSQEAFAASAVGSGERRGGGP,2.65
12,FSSLSQEAFAASAVGSGERRGGGP,3.65
13,FSSASQEAFAASAVGSGERRGGGP,3.14
14,FSSQSQEAFAASAVGSGERRGGGP,3.09
15,FSSISQEAFAASAVGSGERRGGGP,3.62
16,FSSTSQEAFAASAVGSGERRGGGP,3.29
17,FSSESQEAFAASAVGSGERRGGGP,4.28
18,FSSMSQEAFAASAVGSGERRGGGP,3.36
19,FSSRSQEAFAASAVGSGERRGGGP,2.57
20,FSSYSQEAFAASAVGSGERRGGGP,3.74
